Test results reported in publication PMC11077763.

Molecular target: murine TRIM66 PHD-Bromodomain (a.a. 996-1,185) (mouse) (UniProt Q924W6)
Test: ITC; 800 uM to 2.4 mM peptide in the syringe injected into 30-50 uM mTRIM66 PHD-Bromodomain in the cell; 25°C; 20 mM Tris pH 7.5, 100 mM NaCl; single-site binding model; triplicate

Sequence of UniProt Q924W6 (Q924W6 996-1185): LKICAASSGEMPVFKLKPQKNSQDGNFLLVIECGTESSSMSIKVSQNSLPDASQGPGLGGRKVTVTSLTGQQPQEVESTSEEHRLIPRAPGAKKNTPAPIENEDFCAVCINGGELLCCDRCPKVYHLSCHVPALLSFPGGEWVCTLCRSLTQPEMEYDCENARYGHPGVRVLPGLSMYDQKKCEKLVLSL

| Kd | fold decrease of the binding affinity against the unmodified H3 tail | fold increase of the binding affinity against H3K4me3 alone | Substance |
| --- | --- | --- | --- |
| 59.5 µM |  |  | H3 (1-30) K4me3 (from UniProt P68431 2-31) (peptide) |
|  | 7.1 fold | 2.4 fold | H3 (1-30) K4me3+K18Ac (from UniProt P68431 2-31) (peptide) |
| 1.3 µM |  |  | H3 (1-30) K9me3+K18Ac (from UniProt P68431 2-31) (peptide) |
| 3.4 µM |  |  | H3 (1-30) unmodified (from UniProt P68431 2-31) (peptide) |
